Measured values: patent US20040023235A1 (WISTAR INSTITUTE OF ANATOMY AND BIOLOGY, published 2004)
One block for each binder: values may come before it.

Biological target: T1, endogenous 53Bp1 (human p53-binding protein) from U2OS nuclear extracts (human, UniProt Q12888 1-1972)
T1 construct: Endogenous protein in nuclear extracts
Assay: co-immunoprecipitation from U2OS nuclear extracts, western blot
Description: Nuclear extracts from mock treated U20S cells or cells exposed to 1 or 8 Gy gamma irradiation were prepared as described by Waterman et al, 1998 Nature Genet., 19:175-178. Endogenous 53BP1, Mre11, or p95/NBS were immunoprecipitated by binding 1 μg/reaction of monoclonal anti-53BP1, or 1 μg/reaction purified Mre11 or p95/NBS antisera (Calbiochem) in 1× IP buffer [25 mM Hepes (pH 7.4)/100 mM NaCl/5 mM MgCl₂/100 mM EDTA/0.2 mg/ml BSA/0.1% Tween-20] to protein-G sepharose beads (Amersham) for 1 hour. After washing three times with 1× IP buffer, 100 μg nuclear extract was added and proteins allowed to bind for 1 hour at 4° C. The beads were washed and the proteins resolved on 6% SDS-PAGE, transferred to PVDF membrane and were visualized by western blot using the antibodies described in Part A above.

T1 sequence (Q12888 whole entry): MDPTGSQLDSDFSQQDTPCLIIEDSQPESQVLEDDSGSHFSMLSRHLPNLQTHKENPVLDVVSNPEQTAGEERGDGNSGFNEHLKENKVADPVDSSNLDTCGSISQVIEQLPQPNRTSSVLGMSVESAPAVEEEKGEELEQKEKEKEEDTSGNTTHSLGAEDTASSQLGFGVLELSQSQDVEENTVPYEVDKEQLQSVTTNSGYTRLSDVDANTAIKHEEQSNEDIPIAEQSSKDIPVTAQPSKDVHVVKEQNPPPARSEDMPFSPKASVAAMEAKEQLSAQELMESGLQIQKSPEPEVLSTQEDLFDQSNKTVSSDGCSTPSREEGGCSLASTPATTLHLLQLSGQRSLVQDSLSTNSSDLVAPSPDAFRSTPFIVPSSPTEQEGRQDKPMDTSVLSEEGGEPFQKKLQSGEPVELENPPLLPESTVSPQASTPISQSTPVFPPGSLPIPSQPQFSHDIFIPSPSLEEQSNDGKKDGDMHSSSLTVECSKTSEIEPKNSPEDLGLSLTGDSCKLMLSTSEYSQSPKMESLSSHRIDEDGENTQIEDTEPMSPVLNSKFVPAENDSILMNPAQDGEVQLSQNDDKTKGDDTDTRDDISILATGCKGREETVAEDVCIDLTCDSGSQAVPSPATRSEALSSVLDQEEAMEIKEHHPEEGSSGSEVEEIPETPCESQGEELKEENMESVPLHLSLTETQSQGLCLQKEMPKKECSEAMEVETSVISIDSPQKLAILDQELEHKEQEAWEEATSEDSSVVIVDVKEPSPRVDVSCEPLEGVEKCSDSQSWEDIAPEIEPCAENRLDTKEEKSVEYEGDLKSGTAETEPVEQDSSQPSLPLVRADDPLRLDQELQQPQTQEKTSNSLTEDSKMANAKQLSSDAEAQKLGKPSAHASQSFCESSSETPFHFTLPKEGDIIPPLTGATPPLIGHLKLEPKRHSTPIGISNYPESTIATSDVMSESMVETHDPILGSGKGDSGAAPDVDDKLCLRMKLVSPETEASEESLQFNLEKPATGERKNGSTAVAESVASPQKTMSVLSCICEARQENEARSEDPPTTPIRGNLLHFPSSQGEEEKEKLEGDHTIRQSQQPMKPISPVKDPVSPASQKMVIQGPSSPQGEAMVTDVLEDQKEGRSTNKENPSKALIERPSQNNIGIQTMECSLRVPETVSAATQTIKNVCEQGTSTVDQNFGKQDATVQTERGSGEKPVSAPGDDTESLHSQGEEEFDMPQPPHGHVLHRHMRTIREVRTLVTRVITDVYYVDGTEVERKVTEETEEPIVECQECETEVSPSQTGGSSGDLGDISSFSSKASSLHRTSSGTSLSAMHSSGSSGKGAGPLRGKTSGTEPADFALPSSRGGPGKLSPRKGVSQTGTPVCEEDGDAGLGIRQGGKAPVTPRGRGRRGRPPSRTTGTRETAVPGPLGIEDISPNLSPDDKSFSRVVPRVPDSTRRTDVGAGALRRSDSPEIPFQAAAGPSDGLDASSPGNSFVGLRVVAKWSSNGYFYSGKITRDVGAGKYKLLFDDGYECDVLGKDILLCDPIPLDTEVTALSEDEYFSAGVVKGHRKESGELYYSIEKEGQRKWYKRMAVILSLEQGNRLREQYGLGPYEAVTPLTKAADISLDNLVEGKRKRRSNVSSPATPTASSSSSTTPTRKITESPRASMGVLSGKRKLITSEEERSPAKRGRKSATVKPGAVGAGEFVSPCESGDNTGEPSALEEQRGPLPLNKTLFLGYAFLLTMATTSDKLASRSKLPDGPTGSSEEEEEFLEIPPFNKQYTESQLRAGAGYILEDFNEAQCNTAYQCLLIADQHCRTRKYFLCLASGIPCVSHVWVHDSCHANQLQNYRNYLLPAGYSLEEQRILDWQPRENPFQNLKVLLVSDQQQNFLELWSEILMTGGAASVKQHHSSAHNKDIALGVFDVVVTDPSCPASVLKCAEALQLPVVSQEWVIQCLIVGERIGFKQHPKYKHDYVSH

binding result: no binding
B1: Mre11 (other, UniProt P49959 2-708, looked up)
chain: STADALDDENTFKILVATDIHLGFMEKDAVRGNDTFVTLDEILRLAQENEVDFILLGGDLFHENKPSRKTLHTCLELLRKYCMGDRPVQFEILSDQSVNFGFSKFPWVNYQDGNLNISIPVFSIHGNHDDPTGADALCALDILSCAGFVNHFGRSMSVEKIDISPVLLQKGSTKIALYGLGSIPDERLYRMFVNKKVTMLRPKEDENSWFNLFVIHQNRSKHGSTNFIPEQFLDDFIDLVIWGHEHECKIAPTKNEQQLFYISQPGSSVVTSLSPGEAVKKHVGLLRIKGRKMNMHKIPLHTVRQFFMEDIVLANHPDIFNPDNPKVTQAIQSFCLEKIEEMLENAERERLGNSHQPEKPLVRLRVDYSGGFEPFSVLRFSQKFVDRVANPKDIIHFFRHREQKEKTGEEINFGKLITKPSEGTTLRVEDLVKQYFQTAEKNVQLSLLTERGMGEAVQEFVDKEEKDAIEELVKYQLEKTQRFLKERHIDALEDKIDEEVRRFRETRQKNTNEEDDEVREAMTRARALRSQSEESASAFSADDLMSIDLAEQMANDSDDSISAATNKGRGRGRGRRGGRGQNSASRGGSQRGRADTGLETSTRSRNSKTAVSASRNMSIIDAFKSTRQQPSRNVTTKNYSEVIEVDESDVEEDIFPTTSKTDQRWSSTSSSKIMSQSQVSKGVDFESSEDDDDDPFMNTSSLRRNRR
notes: Member of the Mre11/Rad50/NBS complex

binding result: no binding
B2: Rad50 (other, UniProt Q92878 1-1312, looked up)
chain: MSRIEKMSILGVRSFGIEDKDKQIITFFSPLTILVGPNGAGKTTIIECLKYICTGDFPPGTKGNTFVHDPKVAQETDVRAQIRLQFRDVNGELIAVQRSMVCTQKSKKTEFKTLEGVITRTKHGEKVSLSSKCAEIDREMISSLGVSKAVLNNVIFCHQEDSNWPLSEGKALKQKFDEIFSATRYIKALETLRQVRQTQGQKVKEYQMELKYLKQYKEKACEIRDQITSKEAQLTSSKEIVKSYENELDPLKNRLKEIEHNLSKIMKLDNEIKALDSRKKQMEKDNSELEEKMEKVFQGTDEQLNDLYHNHQRTVREKERKLVDCHRELEKLNKESRLLNQEKSELLVEQGRLQLQADRHQEHIRARDSLIQSLATQLELDGFERGPFSERQIKNFHKLVRERQEGEAKTANQLMNDFAEKETLKQKQIDEIRDKKTGLGRIIELKSEILSKKQNELKNVKYELQQLEGSSDRILELDQELIKAERELSKAEKNSNVETLKMEVISLQNEKADLDRTLRKLDQEMEQLNHHTTTRTQMEMLTKDKADKDEQIRKIKSRHSDELTSLLGYFPNKKQLEDWLHSKSKEINQTRDRLAKLNKELASSEQNKNHINNELKRKEEQLSSYEDKLFDVCGSQDFESDLDRLKEEIEKSSKQRAMLAGATAVYSQFITQLTDENQSCCPVCQRVFQTEAELQEVISDLQSKLRLAPDKLKSTESELKKKEKRRDEMLGLVPMRQSIIDLKEKEIPELRNKLQNVNRDIQRLKNDIEEQETLLGTIMPEEESAKVCLTDVTIMERFQMELKDVERKIAQQAAKLQGIDLDRTVQQVNQEKQEKQHKLDTVSSKIELNRKLIQDQQEQIQHLKSTTNELKSEKLQISTNLQRRQQLEEQTVELSTEVQSLYREIKDAKEQVSPLETTLEKFQQEKEELINKKNTSNKIAQDKLNDIKEKVKNIHGYMKDIENYIQDGKDDYKKQKETELNKVIAQLSECEKHKEKINEDMRLMRQDIDTQKIQERWLQDNLTLRKRNEELKEVEEERKQHLKEMGQMQVLQMKSEHQKLEENIDNIKRNHNLALGRQKGYEEEIIHFKKELREPQFRDAEEKYREMMIVMRTTELVNKDLDIYYKTLDQAIMKFHSMKMEEINKIIRDLWRSTYRGQDIEYIEIRSDADENVSASDKRRNYNYRVVMLKGDTALDMRGRCSAGQKVLASLIIRLALAETFCLNCGIIALDEPTTNLDRENIESLAHALVEIIKSRSQQRNFQLLVITHDEDFVELLGRSEYVEKFYRIKKNIDQCSEIVKCSVSSLGFNVH
notes: as for B1
